Earlier results, collected in patent publication US20190076452A1, “THERAPEUTIC COMBINATIONS FOR TREATING NEOPLASIA” (MEDIMMUNE LIMITED, priority 2014, published 2019).

Tested on: advanced melanoma
Conditions: compared to the standard of care (temozolomide or dacarbazine); cited from earlier work

B1: tremelimumab: human IgG2 monoclonal antibody highly selective for CTLA-4 (antibody)
VH: GVVQPGRSLRLSCAASGFTFSSYGMHWVRQAPGKGLEWVAVIWYDGSNKYYADSVKGRFTISRDNSKNTLYLQMNSLRAEDTAVYYCARDPRGATLYYYYYGMDVWGQGTTVTVSSASTKGPSVFPLAPCSRSTSESTAALGCLVKDYFPEPVTVSWNSGALTSGVH
VL: PSSLSASVGDRVTITCRASQSINSYLDWYQQKPGKAPKLLIYAASSLQSGVPSRFSGSGSGTDFTLTISSLQPEDFATYYCQQYYSTPFTFGPGTKVEIKRTVAAPSVFIFPPSDEQLKSGTASVVCLLNNFYPREAKV
- overall survival of patients: did not significantly increase
